± gives the uncertainty stated by the source.
Test: amyloid nucleation score (Sup35N fusion, yeast selection) (log enrichment); library NNK3; higher = more nucleation; inactive = no reads after selection
Method in brief: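 Sup35N was fused to peptides of 20 random codons and expressed in psi-negative yeast, which were induced with 100 μM copper sulfate for 24 hours and then grown on medium lacking adenine and uracil for 7 days at 30°C. Plasmid inserts from input and output were sequenced on Illumina. The nucleation score is the DiMSum log enrichment of output over input reads, centred on the mode score of non-aggregating sequences. Sequences with under 100 input reads were left out, and random libraries had three technical output replicates.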

Amyloid nucleation score, 0.803 ± 0.14:
RAITSVSYVWTGRCL

Amyloid nucleation score, 0.864 ± 0.15:
QRVLY

Amyloid nucleation score, -0.135 ± 0.98:
RDVIRRVVRMHLQLYMFMVG

Amyloid nucleation score, -0.451 ± 1:
QTEFSIGPYIPTEATSRTCS

Amyloid nucleation score, 0.753 ± 0.16:
RFGALVTLVFVCYHWNRPTA

Amyloid nucleation score, 0.625 ± 0.21:
QVCFQSWDASRSRYRHRLKR

Amyloid nucleation score, -0.999 ± 1.9:
RGLQELLWI

Amyloid nucleation score, 3.29 ± 0.056:
QMRVQMSCCFLGTCFSGRHW

Amyloid nucleation score, -0.421 ± 0.98:
QPDFLSWVDACVNKVVYWVK

Amyloid nucleation score, 1.37 ± 0.093:
QNFRFYLTCVSGSGHYRSYT

Amyloid nucleation score, 3.05 ± 0.053:
RCVQCEAYFCLFDKPDVDDT

Amyloid nucleation score, 0.601 ± 0.14:
QYWNFFRFVRGDD

Amyloid nucleation score, 0.068 ± 0.82:
RFSFVTRFRYREQLPLVR

Amyloid nucleation score, -0.562 ± 0.5:
QHSSLKWYLYDYRFLLYTVL

Amyloid nucleation score, 0.357 ± 0.25:
QHAQGYLRGSTMYFEMM

Amyloid nucleation score, -0.358 ± 1.1:
QLRICTR

Amyloid nucleation score, -0.318 ± 0.7:
QDTLYMLDPGG

Amyloid nucleation score, 0.636 ± 0.21:
RIQCIRLDHFSLSLFYFFTA

Amyloid nucleation score, inactive:
QCSDVLYY, QCTASLEHHFVNNQDNASAW, QDAMSTEVEGTF, QDLTLLCVSIWWKLGWSESR, QDYTWVFEVSWAPKGGNLNV, QERTKSFWPLLLALALPSDQ, QFIDRNVWLISSGFRTRFDI, QFLIVGFAYLPSLA, QFLKGDCRYLDPGMDLDRG, QFSVCCCRHLPLYMTKAVIA, QGNCLFVKVG, QHKQVNGFTITYTLGHCYTY, QHSGRWCGAPALGNLVAMSS, QHTGGVLRRTMFINRVSRRM, QHYLVYY, QICHRGEGFWPINSSIRKVV, QINSSLDMMRHTFCSEGYAV, QINWTGHLSMSFICFLNSRV, QKNFLGNF, QLDHGH, QLHNYARMKAQLLAVQV, QLIELGRVVTCV, QLLQVWVNMFKTTAISWIVF, QNCFHVY, QNFRIYTVSLLNNRYDELIS, QNGDKHYG, QNMCAARPS, QQLRNWFHLDPTLARKPKFL, QQPTYKYDDDKNFDSYWLAN, QRELSNMVVISLVQAMLWFR, QRFFRCIRSRSWTFTSGVIV, QRIEYA, QRRAL, QSFLDTSPHLDHVVNNSIKH, QSLGVTRFWGLSLLLQNFLP, QSNEASCSGCLISKVLKNDN, QTRVHLFAREPPCFTEFNER, QVDHNWF, QVDISNLDCQSCRDKRVGLG, QWKPWDNTAVGMLPAWIWVD, QWMQRTW, QWRIRSWHMYDSSLARGLD, QWWITTYFGLIFLYVFYSID, QYEWLNYSNLVVYSIKYPEN, QYFFNRKL, QYGIKGRRVKCWLCWHGDVE, QYLSRCLTWSYVTVKSLRSN, QYSMVVVV, QYSYSPGCRYLKVMLSNNSE, RACCLFQGDWQERLDSISFA, RAGYVWTAVLRPHSNVAWFV, RALVFIIQVVFRFPCTAGIL, RASLEYVGKCWWDGPYIEGV, RAVHR, RAWNWWGFVTFPERLMCSHT, RCDCEFYTLKWQCEVYYRGR, RCLPMG, RCTVNRRQSRSAHGMGPSSS, RCVIMTPLAIREHDNDASCQ, RCYVRFSRSRVVHIMLVYMP, RDHMSS, RDNWSVNLDTKHDLSIAGKL, RDPDGRIYMYGLDVIQYVTN, RDRLKVLLLIFHSRDDTRTK, RDRLVWDRCRTVAPSTGVVR, RDSRRETKTNIWIVRYTLW, RDVVCRRMRTRVLSSHAPPR, REASVECH, REGSDHRFMICETFYFE, REKLDQP, REKTWFCSFIVTLGVCGWDG, RELRF, RERIYAELFSSWRRSAKGIF, REYSEA, RFCRSSWMYPVEGQVGHIRE, RFGYKLFRSSVYGRGESYDY, RFISEYCMFENKEMVEPSFG, RFIVANHLGGVYLQE, RFTCKYLPTLLTGVIRGPSP, RFTYGDRCMKMRMPNFETAH, RFVAHG, RFWLDYEGRNAYWMGITHVW, RFWLLRRVVWEME, RFWSMRALR, RGAFSPVVWSDRMELLGRWL, RGFFMVWLMNCLMRFRISDF, RGFLVRWAPFCLGFGSTLND, RGIPDLVIY, RGKFHRVA, RGNATGSIKD, RGQCVPDAGQVRNGTCMRV, RGQFYLLVARLNSKM, RGSCEFSSLECDTWSNRPSD, RGSDIMAFAVDYTDNKSECS, RGVNKRKADVTRGCYSVVLN, RGWDVWAVHSEFYCLKKLIV, RHAPNVLKYLAHFNDYRQWH, RHNISFT, RHNVRCYCLGLMPNAPVDKL, RHRLAHMRNKWRGQVHCPKG, RHSFMRFRLSNWV, RHYLLCYIKRHTRLQIYKFS, RIFRCVEIA, RIITLNRHIRRVFRMGCRSM, RILFDAARRIRWTVMCTKSC, RIMLVYCMGSRGIAMFCQHN, RINESRLYLSEVKYGLTCVR, RIRMSCYLIVYIGIACGYIS, RIVGRLVSRALWWV, RKAGR, RKDYGMLYFFLSSRKCTHAI, RKGNGMHKNSYSTARMYCGF, RKILVVFLSWFNFKVYSNSM, RKKESYSN, RKLWLMCYS, RKNLWLVTTGNSARDMLSKM, RKYTKCSFRKKSWCPSPFEL, RLANKFSMTSGT, RLFFGYCRMDVIFAPYISCV, RLHLRKYFFETAHWICMNDG, RLKRYLHSMTHRRMRERYCY, RLLLMSRSLMIRFVLSLVLE, RLLVGFIWSWLGISYFTRFL

Amyloid nucleation score, 0.772 ± 0.14:
RAPRVVIGCSMYMGMFSELE

Amyloid nucleation score, 1.72 ± 0.094:
QNFPSTSHFNIYC

Amyloid nucleation score, 2.41 ± 0.076:
QCSIFIIC

Amyloid nucleation score, 2.3 ± 0.067:
RGVYNEHFCCGFSMWEPING

Amyloid nucleation score, -0.399 ± 0.8:
QDHDVSYSSCPGYSVMVMEG

Amyloid nucleation score, -0.165 ± 0.39:
RFQFIEFSSTVSSGGWTFFI

Amyloid nucleation score, -0.19 ± 0.49:
QIRAIMYVFGISVSAVLGAK

Amyloid nucleation score, 0.902 ± 0.2:
QFVASELYVIGFTAVWLGCI

Amyloid nucleation score, -0.725 ± 1.9:
RATKEGKRLDML

Amyloid nucleation score, 0.805 ± 0.17:
QCSWLCIWMGVYLTLILSCA

Amyloid nucleation score, -0.365 ± 1:
RLLRVGFMLRFLIMIRRVRF

Amyloid nucleation score, -0.792 ± 1.4:
RDIVVNRLVRACSLGFLCLG

Amyloid nucleation score, -0.565 ± 1.8:
RLHLAPTNCREVNWPTLWLA

Amyloid nucleation score, 1.52 ± 0.074:
QVILHHMADKKAFISTSSSS

Amyloid nucleation score, 1.33 ± 0.13:
RCNHSCFGSIMGCVVLCPGE

Amyloid nucleation score, -1.13 ± 1.3:
QFSSS

Amyloid nucleation score, 1.83 ± 0.056:
QNILLNVIVTRFGSLQWRSE

Amyloid nucleation score, 0.468 ± 0.3:
RASTISLGKLVQLYLYSRRL

Amyloid nucleation score, -0.4 ± 0.45:
RFLLHLML

Source: the supplement of paper PMC12042874
